Assay [1] deals with hFGFR3b.mmh (human) (UniProt P22607). The assay is described as follows: SPR (Biacore) kinetics, mAb captured, hFGFR3b.mmh as analyte. (In general: SPR reads the build-up and loss of mass on a sensor chip optically.)
Assay [2] has as its target hCD63.mmh (human) (UniProt P08962). The assay is described as follows: SPR (Biacore) kinetics, mAb captured, hCD63.mmh as analyte.
The target of assay [3] is hAPLP2.mmh (human) (UniProt Q06481). In words: SPR (Biacore) kinetics, mAb captured, hAPLP2.mmh as analyte.
In assay [4] the target is human FGFR1c and human KLB co-expressed on HEK293 cells (human) (UniProt P11362). The assay is described as follows: cell-based or functional assay.
The target in assay [5] is hKLB.HA.6×His (human) (UniProt Q86Z14). The assay is described as follows: SPR (Biacore), antibody captured on anti-human Fc (REGN2567) CM5 chip, hKLB.HA.6xHis injected, 25 C, 1:1 fit.
In assay [6] the target is hFGFR1c_V5_6×His (human) (UniProt P11362). In words: SPR (Biacore), antibody captured on anti-human Fc (REGN2567) CM5 chip, hFGFR1c_V5_6xHis injected, 25 C, 1:1 fit.

UniProt P11362, sequence (P11362 22-376): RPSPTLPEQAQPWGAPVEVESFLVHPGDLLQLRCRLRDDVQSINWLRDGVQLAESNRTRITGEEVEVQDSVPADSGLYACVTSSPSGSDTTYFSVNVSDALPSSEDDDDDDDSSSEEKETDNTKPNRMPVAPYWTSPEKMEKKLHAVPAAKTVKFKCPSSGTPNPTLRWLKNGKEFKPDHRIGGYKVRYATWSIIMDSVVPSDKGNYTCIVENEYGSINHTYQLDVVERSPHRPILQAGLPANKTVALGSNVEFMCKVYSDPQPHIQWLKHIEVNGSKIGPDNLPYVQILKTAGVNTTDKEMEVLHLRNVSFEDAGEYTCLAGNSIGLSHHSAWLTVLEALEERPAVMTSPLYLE

Take REGN1945 (antibody): the 100 nM Antigen Bound (RU) in assay [1] is 1.8 RU; in assay [2], 0.5 RU; in assay [3] it was -0.5 RU.

In assay [4], REGN4304 (bispecific antibody) returned a % Act, SRE-luciferase reporter of 42% and an agonist activity relative to hFGF21, SRE-luciferase reporter of 30%.

In assay [4], REGN4366 (bispecific antibody) returned a % activation normalized against soluble FGF21, SRE-luciferase reporter of 19% and an agonist activity relative to hFGF21, SRE-luciferase reporter of 30%. Moreover, in assay [5], the 100 nM Antigen Bound (RU) amounted to 411 RU, the dissociation constant (Kd) turned out to be 25.5 nM, the koff came to 0.0122 s⁻¹ and the on-rate constant (kon) was determined as 476000 M⁻¹ s⁻¹. In assay [6], this substance returned a 100 nM Antigen Bound (RU) of 50 RU, an equilibrium dissociation constant (Kd) of 539 nM, a koff of 0.0247 s⁻¹ and a kon of 45900 M⁻¹ s⁻¹.

In assay [4], “Recombinant human FGF21 with 6×His tag (from UniProt Q9NSA1 29-209) (ligand)” registered a % Act, SRE-luciferase reporter of 100%; a % Activity of (FGF21), SRE-luciferase reporter of 100%; an EC50 (M), SRE-luciferase reporter of 3.4e-09 M.

As a reminder, the Kd is the constant that tells how readily two partners part at equilibrium. What is called koff is a measure of how fast the partners let go of each other. A higher koff goes with fast dissociation. As usually defined, the kon is the rate constant with which the complex forms. Read a low kon as slower complex formation.

The values above are taken from patent US20210130477A1.
